Literature values as cited in publication PMC6005658.
pKi: −log10 of the molar value.

Target: arodyn (1)
Assay: radioligand binding

Sequence of κ opioid receptor (P34975 whole entry): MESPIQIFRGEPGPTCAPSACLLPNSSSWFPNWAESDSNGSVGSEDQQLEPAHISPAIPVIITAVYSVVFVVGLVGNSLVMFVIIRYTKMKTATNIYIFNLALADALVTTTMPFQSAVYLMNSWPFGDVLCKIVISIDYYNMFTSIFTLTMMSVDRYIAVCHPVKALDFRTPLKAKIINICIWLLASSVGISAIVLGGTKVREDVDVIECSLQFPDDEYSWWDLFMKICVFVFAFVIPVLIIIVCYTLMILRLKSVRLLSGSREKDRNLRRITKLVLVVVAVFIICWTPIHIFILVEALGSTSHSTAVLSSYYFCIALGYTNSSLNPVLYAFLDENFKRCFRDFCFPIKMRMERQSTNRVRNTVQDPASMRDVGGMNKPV
Sequence of μ opioid receptor (P33535 whole entry): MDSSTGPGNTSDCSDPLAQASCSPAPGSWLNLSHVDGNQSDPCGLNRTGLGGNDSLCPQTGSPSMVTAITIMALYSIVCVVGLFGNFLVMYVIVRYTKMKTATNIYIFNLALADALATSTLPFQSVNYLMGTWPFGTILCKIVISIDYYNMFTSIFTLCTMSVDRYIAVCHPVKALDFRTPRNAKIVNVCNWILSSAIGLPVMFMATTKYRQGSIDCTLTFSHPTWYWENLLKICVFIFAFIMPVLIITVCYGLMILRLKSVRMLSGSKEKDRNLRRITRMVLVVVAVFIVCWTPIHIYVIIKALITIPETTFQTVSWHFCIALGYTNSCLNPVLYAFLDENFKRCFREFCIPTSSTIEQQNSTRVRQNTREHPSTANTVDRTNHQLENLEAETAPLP

For κ opioid receptor (from UniProt P34975), the pKi is given as 8.00.

For μ opioid receptor (from UniProt P33535), the pKi is listed as 5.76.
